Laboratory results from patent US20250340857A1 (SEISMIC THERAPEUTIC, published 2025).

Target: Human IgE antibody (human)
Experiment: cell-based or functional assay

B1: FP133 (Fc fusion)
chain: DKTHTCPPCPAPEAAGAPSVFLFPPKPKDTLMISRTPEVTCVVVDVSHEDPEVKFNWYVDGVEVHNAKTKPREEQQNSTYRVVSVLTVLHQDWLNGKEYKCKVSNKALKAPIEKTISKAKGQPREPQVYTLPPSRDELTKNQVSLTCLVKGFYPSDIAVEWESNGQPENNYKTTPPVLDSDGSFFLYSKLTVDKSRWQQGNVFSCSVMHEALHNHYTQKSLSLSPGGGGSKGGGSKTALGRRKAEDRIKETLWADGVKIDEKDFEHIKSSHEDYFAVEYGKGSGYYDVNKKMDSEDTALCVGAVVTNMFHWWVDQNRENIEKFKKQDPENNGVMKFEGVKEATVDELNEFYRDNRDNYADQSRFFDLIKKHFGNKALNPEELFELYFNGFYYGSSHRYIEDNEPAQNNLFSKVLENNKLLNPERSYGIDGFSNNVINALKSHKVLGLVYTTPLRYRHIISMWGADIDQDGKVKAIYVTDSDDREITFNDNSKRRIGMIRYDVLVDDNGNIRFTGKGATHKEEGAIYAGLYSLSRGDEVWEDYFKKYPEVQENL
- EC50 CE-SDS IgE: 1.15 nM

B2: FP136 (Fc fusion)
chain: DKTHTCPPCPAPEAAGAPSVFLFPPKPKDTLMISRTPEVTCVVVDVSHEDPEVKFNWYVDGVEVHNAKTKPREEQQNSTYRVVSVLTVLHQDWLNGKEYKCKVSNKALKAPIEKTISKAKGQPREPQVYTLPPSRDELTKNQVSLTCLVKGFYPSDIAVEWESNGQPENNYKTTPPVLDSDGSFFLYSKLTVDKSRWQQGNVFSCSVMHEALHNHYTQKSLSLSPGGSAGKGSAGKTALGRRKAEDRIKETLWADGVKIDEKDFEHIKSSHEDYFAVEYGKGSGYYDVNKKMDSEDTALCVGAVVTNMFHWWVDQNRENIEKFKKQDPENNGVMKFEGVKEATVDELNEFYRDNRDNYADQSRFFDLIKKHFGNKALNPEELFELYFNGFYYGSSHRYIEDNEPAQNNLFSKVLENNKLLNPERSYGIDGFSNNVINALKSHKVLGLVYTTPLRYRHIISMWGADIDQDGKVKAIYVTDSDDREITFNDNSKRRIGMIRYDVLVDDNGNIRFTGKGATHKEEGAIYAGLYSLSRGDEVWEDYFKKYPEVQENL
- EC50 CE-SDS IgE: 0.61 nM

B3: FP134 (Fc fusion)
chain: DKTHTCPPCPAPEAAGAPSVFLFPPKPKDTLMISRTPEVTCVVVDVSHEDPEVKFNWYVDGVEVHNAKTKPREEQQNSTYRVVSVLTVLHQDWLNGKEYKCKVSNKALKAPIEKTISKAKGQPREPQVYTLPPSRDELTKNQVSLTCLVKGFYPSDIAVEWESNGQPENNYKTTPPVLDSDGSFFLYSKLTVDKSRWQQGNVFSCSVMHEALHNHYTQKSLSLSPGGGGSKGGGSKGGGSKTALGRRKAEDRIKETLWADGVKIDEKDFEHIKSSHEDYFAVEYGKGSGYYDVNKKMDSEDTALCVGAVVTNMFHWWVDQNRENIEKFKKQDPENNGVMKFEGVKEATVDELNEFYRDNRDNYADQSRFFDLIKKHFGNKALNPEELFELYFNGFYYGSSHRYIEDNEPAQNNLFSKVLENNKLLNPERSYGIDGFSNNVINALKSHKVLGLVYTTPLRYRHIISMWGADIDQDGKVKAIYVTDSDDREITFNDNSKRRIGMIRYDVLVDDNGNIRFTGKGATHKEEGAIYAGLYSLSRGDEVWEDYFKKYPEVQENL
- EC50 CE-SDS IgE: 2.36 nM

B4: FP137 (Fc fusion)
chain: DKTHTCPPCPAPEAAGAPSVFLFPPKPKDTLMISRTPEVTCVVVDVSHEDPEVKFNWYVDGVEVHNAKTKPREEQQNSTYRVVSVLTVLHQDWLNGKEYKCKVSNKALKAPIEKTISKAKGQPREPQVYTLPPSRDELTKNQVSLTCLVKGFYPSDIAVEWESNGQPENNYKTTPPVLDSDGSFFLYSKLTVDKSRWQQGNVFSCSVMHEALHNHYTQKSLSLSPGGSAGKGSAGKGSAGKTALGRRKAEDRIKETLWADGVKIDEKDFEHIKSSHEDYFAVEYGKGSGYYDVNKKMDSEDTALCVGAVVTNMFHWWVDQNRENIEKFKKQDPENNGVMKFEGVKEATVDELNEFYRDNRDNYADQSRFFDLIKKHFGNKALNPEELFELYFNGFYYGSSHRYIEDNEPAQNNLFSKVLENNKLLNPERSYGIDGFSNNVINALKSHKVLGLVYTTPLRYRHIISMWGADIDQDGKVKAIYVTDSDDREITFNDNSKRRIGMIRYDVLVDDNGNIRFTGKGATHKEEGAIYAGLYSLSRGDEVWEDYFKKYPEVQENL
- EC50 CE-SDS IgE: 1.28 nM
